Non-standard residues stand in square brackets, D forms with d. Residues, ends and D or L forms follow the SMILES beside them. No end group written: not given here. *: point of attachment. Fmoc = O=C(OCC1c2ccccc2-c2ccccc21)*; Cha = N[C@@H](CC1CCCCC1)C(=O)O; AMC = Cc1cc(=O)oc2cc(N*)ccc12
Key:
cynomolgus GalR2 = assay: Calcium assay at orthologue receptor; format: cell-based, Macaca fascicularis; details: Table 8; Calcium assays; mean +/− standard deviation
Text: (§1) These species were chosen as they represent potential downstream in vivo models to be used. Within native galanin amino acid residues 1-15 are conserved across species, we would therefore expect the Gal FC fusions comprising amino acids 2 to 13 to retain GalR2 activity in these species. Calcium imaging was used to define receptor activity.

mouse GalR2 = biological target: T1, mouse GalR2 (Mus musculus, UniProt O88854); assay: Calcium assay at orthologue receptor; format: cell-based
T1 sequence (O88854 1-371): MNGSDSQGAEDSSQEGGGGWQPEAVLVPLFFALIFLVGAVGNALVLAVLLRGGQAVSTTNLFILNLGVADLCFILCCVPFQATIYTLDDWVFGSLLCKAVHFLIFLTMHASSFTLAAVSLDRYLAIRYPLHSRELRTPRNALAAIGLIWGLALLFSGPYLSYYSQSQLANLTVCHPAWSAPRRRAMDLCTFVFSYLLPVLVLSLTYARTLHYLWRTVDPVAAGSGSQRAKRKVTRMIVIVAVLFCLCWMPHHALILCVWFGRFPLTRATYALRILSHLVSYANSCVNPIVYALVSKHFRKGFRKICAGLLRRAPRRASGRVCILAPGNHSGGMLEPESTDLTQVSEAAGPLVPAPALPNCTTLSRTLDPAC
Text: as §1

GalR1 [1] = biological target: T2, GalR1 (Homo sapiens, UniProt P47211); assay: β-arrestin recruitment, PathHunter CHO-K1 GALR1 cells; format: cell-based; details: for Emax: CHO-K1, 1.5 h, read-out: GalR1 Beta Arrestin IA (%)
T2 sequence (P47211 1-349): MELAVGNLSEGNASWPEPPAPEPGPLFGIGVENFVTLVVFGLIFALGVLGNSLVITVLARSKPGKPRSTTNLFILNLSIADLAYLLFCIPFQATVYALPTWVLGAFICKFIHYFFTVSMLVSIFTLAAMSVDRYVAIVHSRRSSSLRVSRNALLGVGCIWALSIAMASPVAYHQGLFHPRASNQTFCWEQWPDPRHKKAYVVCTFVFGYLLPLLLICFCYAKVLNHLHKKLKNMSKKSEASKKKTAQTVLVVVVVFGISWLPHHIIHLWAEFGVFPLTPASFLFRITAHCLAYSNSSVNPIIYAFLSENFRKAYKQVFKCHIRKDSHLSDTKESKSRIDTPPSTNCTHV
Method: (§2) Ligands were prepared at half log dilutions using cell plating reagent 2. 5 μl of each ligand was added to cells and plates incubated at 37° C. for 90 minutes. DiscoverX PathHunter detection kit (DiscoverX, USA) was added to cells as described my manufacturer's guidelines and plates incubated for 60 minutes at room temperature in the dark. Chemiluminescent signal was measured using the PHERAstar FS (BMG, Germany).

GalR1 [2] = biological target: T2, GalR1; assay: cAMP HTRF assay, CHO GalR1 cells; format: cell-based; set-up: expressed in transfected cells; host or cells: CHO (Flp-In, pcDNA5/FRT); details: for Emax: read-out: GalR1 cAMP IA (%); for GalR1 activity (cAMP assay), linker variants: Table 7, highest concentration tested 10 μM
Method: The CAMP dynamic 2 kit (Cisbio International) was used as a competitive immunoassay to measure Homogenous Time-Resolved Fluorescence (HTRF). […] Addition of detection reagent involved adding 5 μl d2 conjugated CAMP followed by 5 μl anti-CAMP cryptate conjugate. The two reagents were not pre-mixed; these were both prepared in cell lysis buffer and incubated at room temperature in the dark for one hour.

GALR2 [3] = biological target: T3, GALR2 (Homo sapiens, UniProt O43603); assay: Calcium assay, CHO GalR2 cells (FLIPR); details: for GalR2 Calcium, mean pEC50: Table 2, n ≥ 3; for GalR2 Calcium, mean pEC50 / GalR2 activity (calcium assay), linker variants / GalR2 activity (calcium assay), warhead length: mean +/− standard deviation; for GalR2 activity (calcium assay), linker variants: Table 7; for GalR2 activity (calcium assay), linker variants / GalR2 activity (calcium assay), warhead length: highest concentration tested 10 μM; for GalR2 activity (calcium assay), warhead length: Table 6
T3 sequence (O43603 1-387): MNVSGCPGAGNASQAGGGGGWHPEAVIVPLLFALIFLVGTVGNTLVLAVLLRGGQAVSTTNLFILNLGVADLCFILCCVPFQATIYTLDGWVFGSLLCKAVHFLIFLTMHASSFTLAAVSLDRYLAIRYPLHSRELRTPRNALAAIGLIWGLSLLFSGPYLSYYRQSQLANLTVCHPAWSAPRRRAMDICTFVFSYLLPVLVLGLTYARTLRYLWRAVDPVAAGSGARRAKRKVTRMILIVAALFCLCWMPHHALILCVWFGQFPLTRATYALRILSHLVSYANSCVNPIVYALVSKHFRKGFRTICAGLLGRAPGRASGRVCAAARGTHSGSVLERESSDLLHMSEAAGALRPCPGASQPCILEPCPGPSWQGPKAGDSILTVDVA
Method: CHO GalR2 cells were plated at 10,000 cells per well in black clear bottom plates (corning, USA) and incubated overnight at 37° C. with 5% CO2. […] Ligands were prepared at a 5× concentration and added to cells using the FLIPR (Molecular Devices, USA). Baseline was typically 20 seconds before ligand addition. […] For analysis, fluorescence was normalised to pre-addition baseline and peak fluorescence used for all quantification.
In brief, a panel of functional cell-based microtiter-plate assays were developed using recombinant GalR1 and GalR2 receptors stably expressed in CHO cells. […] Nominally this equated to 10 serial (~3fold) dilutions with highest concentrations of 10-1 μM as appropriate.
In addition to generating both potency and efficacy estimates, the latter being expressed relative to native galanin, both G-protein and non-G-Protein signalling pathways were measured.

GALR2 [4] = biological target: T3, GALR2; assay: β-arrestin recruitment, PathHunter CHO-K1 GALR2 cells; format: cell-based; details: for GalR2 Beta Arrestin, mean pEC50: Table 2, mean +/− standard deviation, n ≥ 3
Method: as §2

[5] = Table 3, mean +/− standard deviation, n ≥ 3, highest concentration 1 μM (galnon 100 μM)
[6] = maximum response at highest concentration tested (1 μM, except galnon at 100 μM), relative to galanin

CC(C)C[C@H](NC(=O)CNC(=O)[C@H](CC(N)=O)NC(=O)[C@H](CCCCN)NC(=O)[C@H](CC(=O)O)NC(=O)[C@H](CO)NC(=O)[C@H](Cc1ccccc1)NC(=O)[C@H](CO)NC(=O)[C@H](CCCNC(=N)N)NC(=O)[C@H](Cc1c[nH]cn1)NC(=O)[C@H](CC(N)=O)NC(=O)CNC(=O)[C@@H](NC(=O)[C@H](C)NC(=O)[C@H](Cc1c[nH]cn1)NC(=O)[C@@H]1CCCN1C(=O)CNC(=O)[C@H](CC(C)C)NC(=O)[C@H](CC(C)C)NC(=O)[C@H](Cc1ccc(O)cc1)NC(=O)CNC(=O)[C@H](C)NC(=O)[C@H](CO)NC(=O)[C@H](CC(N)=O)NC(=O)[C@H](CC(C)C)NC(=O)[C@@H](NC(=O)[C@H](Cc1c[nH]c2ccccc12)NC(=O)CN)[C@@H](C)O)C(C)C)C(=O)N[C@H](C(=O)N[C@@H](CO)C(=O)O)[C@@H](C)O [Galanin 1-30 (human), reference compound]
Cynomolgus GalR2 activity (cynomolgus GalR2): 9.6 +/− 0.2 | EC50 (mouse GalR2): 1 nM

CC[C@H](C)[C@H](NC(=O)[C@H](C)NC(=O)[C@H](Cc1c[nH]cn1)NC(=O)[C@@H]1CCCN1C(=O)CNC(=O)[C@H](CC(C)C)NC(=O)[C@H](CC(C)C)NC(=O)[C@H](Cc1ccc(O)cc1)NC(=O)CNC(=O)[C@H](C)NC(=O)[C@H](CO)NC(=O)[C@H](CC(N)=O)NC(=O)[C@H](CC(C)C)NC(=O)[C@@H](NC(=O)[C@@H](N)Cc1c[nH]c2ccccc12)[C@@H](C)O)C(=O)N[C@@H](CC(=O)O)C(=O)N[C@@H](CC(N)=O)C(=O)N[C@@H](Cc1c[nH]cn1)C(=O)N[C@@H](CCCNC(=N)N)C(=O)N[C@@H](CO)C(=O)N[C@@H](Cc1ccccc1)C(=O)N[C@@H](Cc1c[nH]cn1)C(=O)N[C@@H](CC(=O)O)C(=O)N[C@@H](CCCCN)C(=O)N[C@@H](Cc1ccc(O)cc1)C(=O)NCC(=O)N[C@@H](CC(C)C)C(=O)N[C@@H](C)C(N)=O [Galanin 2-29 (rat), reference compound]
Emax (GalR1 [1]): 67.2% | Emax (GalR1 [2]): 90.8%

Cc1cc(=O)oc2cc(NC(=O)[C@H](CCCCN)NC(=O)[C@H](CC3CCCCC3)NC(=O)OCC3c4ccccc4-c4ccccc43)ccc12 [Galnon, reference compound] (Fmoc-[Cha]-Lys-{AMC})
EC50 (GalR1 [1]): > 1000 nM | Emax (GalR1 [1]): 40.1% | EC50 (GalR1 [2]): > 1000 nM | Emax (GalR1 [2]): 2.9% | EC50 (GALR2 [3]): 20 µM | EC50 (GALR2 [4]): 158 µM

GWTLNSAGYLLGPQPPGFSPFR-NH2 (C-terminus assumed) [M617, reference compound]
Emax (GalR1 [1]): 99% | Emax (GalR1 [2]): 90.1%

Gal1-30FC: galanin 1-30 fused to human IgG1 FC, mature chimeric protein SEQ ID NO: 23
GalR1 Beta Arrestin pEC50 (GalR1 [1]; [5]): 5.72 +/− 0.40 | GalR1 Beta Arrestin IA (%) (GalR1 [1]; [6]): 88.1 +/− 7.1% | GalR1 cAMP pEC50 (GalR1 [2]; [5]): 8.4 +/− 0.2 | GalR1 cAMP IA (%) (GalR1 [2]; [6]): 93.4 +/− 11.6% | GalR2 Calcium, mean pEC50 (GALR2 [3]): 6.4 +/− 0.3 | GalR2 Beta Arrestin, mean pEC50 (GALR2 [4]): 5.7 +/− 0.4

Gal2-13FC (ALA-12): Gal2-13FC with alanine at position 12; SEQ ID NO: 61
activation of GalR2 in vitro (in words) (GALR2 [4]; positions 12 and 13 study, FIG. 2 / Table 4): failed to activate GalR2

Gal2-13FC GGS2: Gal2-13 FC fusion with GGSGGS linker; SEQ ID NO: 34
GalR1 activity (cAMP assay), linker variants (GalR1 [2]; mean +/− standard deviation): 5.5 +/− 0.2 | GalR2 activity (calcium assay), linker variants (GALR2 [3]): 6.4 +/− 0.0

Gal2-13FC GGS: Gal2-13 FC fusion with GGS linker; SEQ ID NO: 33
GalR1 activity (cAMP assay), linker variants (GalR1 [2]; mean +/− standard deviation): 5.3 +/− 0.1 | GalR2 activity (calcium assay), linker variants (GALR2 [3]): 6.4 +/− 0.1

Gal2-13FC NL: Gal2-13 FC fusion with no linker; SEQ ID NO: 36
GalR1 activity (cAMP assay), linker variants (GalR1 [2]; mean +/− standard deviation): 5.9 +/− 0.2 | GalR2 activity (calcium assay), linker variants (GALR2 [3]): 7.3 +/− 0.1

Gal2-13FC PA4: Gal2-13 FC fusion with PAPAPAPA linker; SEQ ID NO: 37
GalR1 activity (cAMP assay), linker variants (GalR1 [2]; mean +/− standard deviation): 6.1 +/− 0.0 | GalR2 activity (calcium assay), linker variants (GALR2 [3]): 6.8 +/− 0.1

Gal2-18FC: galanin 2-18, AEAAAKEAAAKA linker, human IgG1 FC; SEQ ID NO: 26
GalR2 Calcium, mean pEC50 (GALR2 [3]): 6.7 +/− 0.1 | GalR2 activity (calcium assay), warhead length (GALR2 [3]): 6.7 +/− 0.1 | GalR2 Beta Arrestin, mean pEC50 (GALR2 [4]): 7.3 +/− 0.1

Gal2-24FC: galanin 2-24, AEAAAKEAAAKA linker, human IgG1 FC; SEQ ID NO: 27
GalR2 Calcium, mean pEC50 (GALR2 [3]): 6.9 +/− 0.3 | GalR2 activity (calcium assay), warhead length (GALR2 [3]): 6.9 +/− 0.3 | GalR2 Beta Arrestin, mean pEC50 (GALR2 [4]): 7.6 +/− 0.0

RGRGNWTLNSAGYLLGPVLPPPALALA-NH2 (C-terminus assumed) [M1145, reference compound]
Emax (GalR1 [1]): 24.5% | Emax (GalR1 [2]): 86.7%
